In the nanobody polyreactivity screen of Harvey et al. (2022):

assay: yeast display, Sf9 membrane polyspecificity reagent, FACS + sequencing; frameworks hold sequencing errors
Procedure, shortened: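 After 36–48 hours of galactose induction, yeast (Saccharomyces cerevisiae BJ5465) displaying a synthetic nanobody library were stained at 4 °C for 1 hour with 10% biotinylated, detergent-solubilized Sf9 membrane reagent. Streptavidin microbeads enriched the stained cells before FACS sorting into low and high (top ~1%) gates on anti-HA and streptavidin fluorescence. Each clone's polyreactivity label reflects its gate of origin.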

Row | Sequence | polyreactivity (PSR sort gate)
1 | QVQLVESGGGLFQEGGSLRLICAASGFTFSGYAMGWYRQAPGKERELVDAISSSGGSTYYADSVKGRFTISRDNAKNTVYLQMNSLKPEDTAVYYCYDRSRYYPGYSRFFYWGQGTQVTVSS | high polyreactivity
2 | QVQLVESGGGLFQEGGSLRLSCAASGRIFYGYGMGWYRQAPGKERELVAAITWSGSRTYYADSVKGRFTISRDNAKNTVYVQMNSLKPEDTAVYYCAARIPSDGYYYWGQGTQVTVSS | high polyreactivity
3 | QVQLVESGGGLGQAGGSLLLSCAASGSTFKYNAMGWNRKAPGKERELVPAISRGGRTNYADSVKGRFKISRDNAKNTVYLQMNSLKPEDTAVYYCAKDVAGLFHVGALYYYWGQGTQVTVSS | low polyreactivity
4 | QVQLVESGGGLGQAGGSLRLSCAASGFIFTFYAMGWNRQAPGKERELVAAISWSGGSTYYADSVKGRFTISHDNAKNTVYLQMNSLKPEDTAVYSCNAQHARGYYYWGQGTQVTVSS | low polyreactivity
5 | QVQLVESGGGLGQAGGSLRLSCAASGFTFPWYAMGWYRPAPGKERELVASISYRGDSTYYADSVKGRFTISRDNAKNTVYLEMNSLKPEDTAVYYCNNSLASYYLPGFDYWGQGTQVTVSS | low polyreactivity
6 | QVQLVESGGGLGQAGGSLRLSCAASGFTFRYYAMGWSRQAPGKERELVAAITGSGGRTYYADSVKGRFTISRDNAKNTVYLQKNSLKPEDSAVYYCARDVDPRGRYYWGQGTQVTVSS | high polyreactivity
7 | QVQLVESGGGLGQAGGSLRLSCAASGRIFAGYAMGWYRQAPGKERELVAAISWSGSSTHYADSVKGRFTISRDNAKNTVYFQMNSLKPEDTAVYYCAADLKDTRLFPWFFEYDYWGQGTQVTVSS | low polyreactivity
8 | QVQLVESGGGLGQAGGSLRLSCAASGRIFRGYAMGWYRQAPGTDRELVATISAIGGSTYADSVKGRFTIARDNAKNTVYLQMNSLKPEDTAVYYCNKVHFRPRYFLRSDYWGQGTQGTVSS | high polyreactivity
9 | QVQLVESGGGLGQAGGSLRLSCAASGRIFRYNAMGWYRQAPGKDRELVAVITSRGGRTYYADSVKGRFTLSRDNAKNTVYLQMTSLKPEDSAVYYCTATYSGRGSTYWSGYDYWGQGTQVTVSS | high polyreactivity
10 | QVQLVESGGGLGQAGGSLRLSCAASGRTLGIYAMGWYRQAPGKERELVAAITWSGGSTYYADSVKGRFTISRDNAKNTVYLQMNSLKPEDTAVYYCNVRSGGKRRNSGRVDYWGQGTQVTVSS | low polyreactivity
11 | QVQLVESGGGLGQAGGSLRLSCAASGSIFAVNAMGWYRPAPGKERELVAGINSSGGSTHYADSVKGRFTISRDNAKNTVYFQMNSLKPEDTAVYYCAADWLRPAYYAVASLVKSDYWGQGTQVTVSS | low polyreactivity
12 | QVQLVESGGGLGQAGGSLRLSCAASGSIFGRYTMGWYRQAPGKERELVAAITLRGGSTYYADSVKGRFTISRDNAKNTVYLQMNSLKPEDTAVYYCATDGWKQSAYDYWGQGTQVTVSS | low polyreactivity
13 | QVQLVESGGGLGQAGGSLRLSCAASGSIFSAYAMGWYRPAPGKERELVAGISKRGGSTYYADSVKGRFTISRDNAKNTVYLQMNSLKAEDTAVYYCTAARYTVVTKLFDYWGQGTQVTVSS | high polyreactivity
14 | QVQLVESGGGLGQAGGSLRLSCAASGSNFRPYAMGWYRPAPGKERELVAAISSSGGSTYYADSVKGRFTISRDNAKNTVYLQMNSLKPEDTAVYYCAAVSRSTWIHSRDYWGQGTQVTVSS | low polyreactivity
15 | QVQLVESGGGLGQAGGSLRLSCAASGSTFKFYAMGWYRHAPGKERELVATISWTGGSTYYADSVKGRFTISRDNAKNTVYLQTNSLKPEDTAVYYCANRKTSYPVIWYTVNGRHYYWGQGTQVTVSS | low polyreactivity
16 | QVQLVESGGGLGQAGGSLRLSCAASGSTFYLNAMGWYRQATGKERELVAAINSGDSTNYADSVKGRFTISRDNAKNTVYLQMNSLKPEDTAVYYCARDRFPSEGDYWGQGTQVTVSS | low polyreactivity
17 | QVQLVESGGGLGQAGGSLRLSCAASGSTFYRNAMGWYRPAPGKERELVAAISGSDGSTYYADSVKGRFTISRDNAKNTVYLQMNSLKPEDTAVYYCVVAYARKYYYWGQGTQVTVSS | high polyreactivity
18 | QVQLVESGGGLGQAGGSLRLSCAASGSTLNYYAMGWYTQAPGKERELVAAITWSGGSTSYADSVKGRFTISRDNAKNTVYLQMNSLKPEDTAVYYCATDFPTVQLYDTDWLSSDMGYWGQGTQVTVSS | low polyreactivity
19 | QVQLVESGGGLGQAGGSLRLSCAASGYTFGKYAMGWYRPAPGKERELVAAISWSGGSTYYADSVKGRFTISRDNAKNTVYLQMNSLKPEDTAVYYCNIGYIGRYGYWGQGTQVTVSS | high polyreactivity
20 | QVQLVESGGGLGQAGGSLRLSCADSGRTFYKYAMGWYRQSPGKERDLVAAISGSGGSTFYADSVKGRFTISRDNAKNTVYLQMNSLKPEDTAVYYCAKYLRPRIGYRYYYWVQGTQVTVSS | high polyreactivity
21 | QVQLVESGGGLGQAGGSLRLSSAASGFTFRRNAMGWYRQAPGKERELVAAINVRDGSTYYADSVKGRFTISRDNAKNTVYLQMNSLKPEDTAVYYCAAEFFQGYYWYYYWGQGTQVTVSS | high polyreactivity

Row | Sequence | polyreactivity (PSR sort gate)
22 | QVQLVESGGGLGQAGGSLRLSTAASGSNFRYNTMGWYRLGPGKERELVAAINISSSSTYYADSLKGRFTISRDNAKNTVYLQMNSLKPEVTAVYYCANRDYVPIATYENDDYWGQGTQVNVSS | low polyreactivity
23 | QVQLVESGGGLGQAGGSLRVSCAASGGTLYYYAMGWYRQARGKERELVADITNSGSTNYADAVKGRFTISRDNAKNTVYLQMNSLKPEDTAVYSCAAAFSRRYDWGQGTQVTVSS | high polyreactivity
24 | QVQLVESGGGLGQAVGRLRLSCAASGGTFPQYAMGWYRQAPGKEREFVADITSRGGTTYYADSVQGRFTISRDNAKNTVYLQMNSLKPEDTAVYYCAADNPADWWGLDYWGQGTQVTVSS | low polyreactivity
25 | QVQLVESGGGLLHAGGSLRLSCAASGLIFSDYVMGWYRQAPWKERELVAGITTGGSTKYADSVKWRFTISRDNAKTTVYLQMNSLKPEDTAVYYCAVGKYNYRGSWDYYWGQGTQVTLSS | high polyreactivity
26 | QVQLVESGGGLLQAGGILRLSCAASGFTFKYYVMGWYRQAPGKERELDAAITSSGSTYYADSVKGRFTISRDNAKNTVYLQINRLKPEDSAVYYCAAEGQSWQRWRYNYWGQGTQVTVSS | high polyreactivity
27 | QVQLVESGGGLLQAGGSLPLSCPASGRIFYSYAMGWYRQAPGKERELVAGINWRGSNTYYADSVKGRFTISRDNAKNTVYFQMNSLKPEDTAVYYCSATYYQERRRGYWGQGSQVTVSS | high polyreactivity
28 | QVQLVESGGGLLQAGGSLRFSWAASGFIFIINPMGWYRQAPGKERELVAGIRWSGGYKYYADSVKGRFTISRDNEKNTVYLQINSLKPEDTAVYYCNKDRGSLTLYTYDYWGQVTQVTVSS | low polyreactivity
29 | QVQLVESGGGLLQAGGSLRISCAASGITFVYYVMGWYRQAPRKERELVAGISSGGSTYYADSVKGRFTISRDNAKNTVYLQMISLKPEDTAVYYCNAVDTYGLWRRYNYWGQGTQVTVSS | high polyreactivity
30 | QVQLVESGGGLLQAGGSLRLICAASGRIFQTYAMGWYRQAPGKERELVARIRLSGGSTYSADSVKGRFTISRDNAKNTGYLQKNSQKPEDTAVYSCAARFSRARFTDPYYYWGQGTQVTVSS | high polyreactivity
31 | QVQLVESGGGLLQAGGSLRLICAASGSIFGANTMGWYRPAPGKERELVAGITSGARTYYADSVKGRFTMSRDNAKNTVYLQMNSLQPEDTAVYYCAANYAWRRYGYWGNGTQVTVSS | high polyreactivity
32 | QVQLVESGGGLLQAGGSLRLSCAASGFIFGRNAMGWYRQAPGKERELVAAITRSGGSTYYADSVKGRFTISRDNAKNTVYLQMISLKTEDTAVYYCAKGDFYWGVFRVGIRDDYWGQGTQVNVSS | high polyreactivity
33 | QVQLVESGGGLLQAGGSLRLSCAASGFTIQRYAMGWYRQAPGKERELVAAITSGGSTYYADSVKGRFTISRDNAKNTVYLQMNSLKPEDTAVYYCATRAVWSSWGRRYDSWGQGTQVTVSS | high polyreactivity
34 | QVQLVESGGGLLQAGGSLRLSCAASGIIFGRYTMGWYRKAPGKETELVAAITSSGITYYADSVKGRFTISRDNAKNTVYLQMNSLKPEDTAVYYCYADYSIPGYYWPYDYWGQGTQVTVSS | low polyreactivity
35 | QVQLVESGGGLLQAGGSLRLSCAASGRIFIANAMGWNRQAPRKERDLVAAITSDGGTNYADSVKGRFTISRDNAKITVYLQLISLKPEDTAVYYCAATYQIGYYYVWEYDYWGQGTQLTVSS | low polyreactivity
36 | QVQLVESGGGLLQAGGSLRLSCAASGRIFPYYAMGWYRQAPGKERVLLAAISQSGGRTYYADSVKGRFTISRDNAKNTVFLQMNSLKPEDTAVYYCNADTYSSGYDYWGQGTQVTVSS | high polyreactivity
37 | QVQLVESGGGLLQAGGSLRLSCAASGRIYSIYAMGWYRQAPGKERELVASITGSGGTTYYADSVKGRFTISRDIAKNTVYLQMNSLKPEDTAVYYCAAVFYGFVGYYNEDYWGQGSQVTVSS | low polyreactivity
38 | QVQLVESGGGLLQAGGSLRLSCAASGRTFLGYAMGWYIQAPGKERELVAAISWDGTSTYYADSLKGRFTISRDNAKNTVYLPMNSLKPEDTAVYYCAAQLTDYQSKTLSYDYWGQGTQVTVSS | low polyreactivity
39 | QVQLVESGGGLLQAGGSLRLSCAASGRTFRAYTMGWYRQAPGKERELVAAISTPGGSTYYADSVKGRFTISRDNAKNTVYLQMNSLKPEDSAVYYCAAGTFYYWLSYDYWGQGTQVTVSS | low polyreactivity
40 | QVQLVESGGGLLQAGGSLRLSCAASGRTFYHYTMGWYRQAPGKERELVARITRRVGSTYYADSVKGRFTISRDNAKNIVYLQMNSLKPEDTAVYYCNSKSGVYRYLLDYWGQGTQVTVSS | high polyreactivity
41 | QVQLVESGGGLLQAGGSLRLSCAASGRTIVQNAMGWYRQAPGKERELVASIRYRDGSTYYADSVKGRFTISRDNAKNTVYLQMNSLKTEDTAVYYCAVRYYRKYYYSPFDYWGQGTQVTVSS | high polyreactivity
